Assay [1] addresses Mimivirus cyclophilin (mimicyp), full length wild type (Mimivirus) (UniProt Q5UP71). Kind of assay: crystal structure.
Assay [2] has the same target. In words: SEC + other: NMR.

The term stoichiometry N denotes the number of molecules, sites or subunits per partner or assembly. A word on the Kd: it is the equilibrium constant for the complex coming apart.

Regarding “Mimivirus cyclophilin (mimicyp), full length wild type (from UniProt Q5UP71 1-234) (natural protein)”, the stoichiometry N in assay [1] stood at 3. Also, the dissociation constant Kd in assay [2] was 50 to 500 µM.

For the origin of these results see PMC2884007.
